The text below walks through data of article PMC6180065, “Deciphering molecular details in the assembly of alpha-type carboxysome” (Scientific Reports, 2018).

This assay addresses T1, MBP tagged CbbL(1–136) (Halothiobacillus neapolitan (ATCC 23641), UniProt O85040 1-136).
T1 construct: Residues 1-136 (N domain) of RuBisCO large subunit CbbL of Halothiobacillus neapolitan (ATCC 23641); The coat of the ELISA; also called CbbL(N)
T1 sequence (looked up): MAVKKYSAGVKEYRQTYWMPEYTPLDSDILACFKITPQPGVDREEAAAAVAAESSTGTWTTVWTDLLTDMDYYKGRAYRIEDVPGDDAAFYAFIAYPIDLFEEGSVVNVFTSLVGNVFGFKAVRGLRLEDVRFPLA
Kind of assay: ELISA; semi-quantitative; MaxiSorp plates coated with MBP-tagged CbbL(1–136) (30 nM in 0.1 M Na2CO3 pH 9.6, 4 °C, 12 h); CsoS1C-6xHis 5 nM to 5 μM in blocking buffer (1 mM CaCl2, 1% BSA in TBS), 1 h at room temperature; detected by 6xHis tag antibody and anti-mouse IgG-HRP; Hill equation fit; apparent Kd. Particulars: both partners purified. Background: In an ELISA, binding on a coated surface is turned into a signal by an enzyme label.

B1: CsoS1C-6xHis (natural protein, Halothiobacillus neapolitan (ATCC 23641))
chain: MAAVTGIALGMIETRGLVPAIEAADAMTKAAEVRLVGRQFVGGGYVTVLVRGETGAVNAAVRAGADACERVGDGLVAAHIIARVHSEVENILPKAPEA
notes: Carboxysome shell protein CsoS1C of Halothiobacillus neapolitan (ATCC 23641); printed length 98 a.a; not measured in the assay
As to B1, the Kd amounted to 120 ± 4.6 nM.
